In experiment [1] the target is T1, murine GFRalpha3 (murine, UniProt O35118 29-371).
T1 construct: also called murine GFRalpha3 on NB41A3-L3 cells
T1 sequence: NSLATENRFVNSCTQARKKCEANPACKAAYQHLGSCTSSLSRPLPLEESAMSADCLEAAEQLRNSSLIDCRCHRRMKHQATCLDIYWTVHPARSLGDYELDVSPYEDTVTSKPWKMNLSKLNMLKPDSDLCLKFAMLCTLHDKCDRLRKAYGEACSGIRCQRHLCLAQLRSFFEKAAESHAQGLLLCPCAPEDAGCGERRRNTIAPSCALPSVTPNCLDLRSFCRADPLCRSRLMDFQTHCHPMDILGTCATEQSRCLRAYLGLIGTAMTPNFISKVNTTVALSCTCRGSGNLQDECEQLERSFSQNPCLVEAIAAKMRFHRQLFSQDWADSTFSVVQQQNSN
The experiment is described as follows: Neublastin competition binding on NB41A3-L3 cells (murine GFRalpha3 plus endogenous murine Ret): 0-10 uM rat Neublastin for 10 min at 4 C, unoccupied GFRalpha3 probed with 10 ug/ml biotinylated MOR02683, FACS with PE-Streptavidin, hyperbolic fit. The procedure:
NB41A3-L3 cells were incubated with different concentrations of rat Neublastin for 10 minutes at 4° C. During the incubation period, the binding reaction of Neublastin to GFRalpha3 and Ret on the cell surface reaches equilibrium. Cells were then quenched with a high concentration (10 ug/ml) of biotinylated MOR02683 for 2 minutes. MOR02683 can only bind to GFRalpha3 receptors that are not already occupied by Neublastin and thus acts as a probe for unoccupied GFRalpha3 receptors. During the short incubation time of the quenching reaction, no re-equilibration between Neublastin and MOR02683 binding occurs. The amount of MOR02683 bound to GFRalpha3 was then quantified via FACS analysis using PE-Streptavidin as a secondary reagent.
Neublastin competition binding was used to measure Neublastin binding affinities to receptors on the cell surface. NB41A3-L3 cells were incubated with 0-10 uM rat Neublastin for 10 minutes at 4° C. Cells were then quenched with 10 ug/ml biotinylated MOR02683 for 2 minutes. The amount of MOR02683 bound to GFRalpha3 was quantified by FACS using PE-Streptavidin as a secondary reagent. […] A Neublastin concentration-dependent reduction in the subsequent binding of MOR02683 was observed, but not with the control antibody MOR02682 (FIG. 8).

Experiment [2] has as its target T2, rat GFRalpha3 (rat, UniProt O35118 29-370 (mouse entry)).
T2 construct: Expressed on transiently transfected HEK 293 EBNA cells; also called RetL3
T2 chain: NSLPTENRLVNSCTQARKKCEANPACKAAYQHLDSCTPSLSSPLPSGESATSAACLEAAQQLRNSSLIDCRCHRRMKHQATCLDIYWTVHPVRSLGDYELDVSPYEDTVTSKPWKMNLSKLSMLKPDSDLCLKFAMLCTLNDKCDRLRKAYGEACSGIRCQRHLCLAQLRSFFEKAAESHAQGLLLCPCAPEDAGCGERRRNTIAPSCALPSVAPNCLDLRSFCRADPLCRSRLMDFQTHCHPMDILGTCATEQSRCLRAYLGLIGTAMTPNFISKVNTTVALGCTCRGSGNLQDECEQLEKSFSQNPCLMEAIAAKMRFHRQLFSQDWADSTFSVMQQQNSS
Description: FACS. For orientation: In flow cytometry, cells or beads pass a laser one at a time.

For experiment [3], the target named is T3, rat GFRalpha1 (rat, UniProt Q62997 25-430).
T3 construct: whole, on cells; Expressed on transiently transfected HEK 293 EBNA cells
T3 sequence (looked up): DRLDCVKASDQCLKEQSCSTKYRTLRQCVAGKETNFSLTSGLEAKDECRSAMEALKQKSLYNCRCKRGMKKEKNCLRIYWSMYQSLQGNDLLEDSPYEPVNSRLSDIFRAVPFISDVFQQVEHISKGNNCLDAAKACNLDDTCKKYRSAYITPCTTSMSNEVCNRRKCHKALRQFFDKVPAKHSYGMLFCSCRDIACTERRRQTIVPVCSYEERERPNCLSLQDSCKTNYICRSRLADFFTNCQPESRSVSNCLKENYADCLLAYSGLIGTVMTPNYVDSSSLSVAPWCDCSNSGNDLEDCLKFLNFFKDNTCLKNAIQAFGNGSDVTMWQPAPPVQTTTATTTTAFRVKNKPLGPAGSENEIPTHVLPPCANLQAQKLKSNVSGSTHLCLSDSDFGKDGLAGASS
Description: FACS on transiently transfected HEK 293 EBNA cells. The procedure: (§1) HEK 293 EBNA cells were transiently transfected with an empty vector, a vector encoding rat GFRalpha1, a vector encoding rat GFRalpha2, or a vector encoding rat GFRalpha3. These cells were stained with 10 ug/ml of the anti-GFRalpha3 polyclonal antibody R11 (a rabbit polyclonal antibody generated by immunization with the peptide […] (SEQ ID NO:14), which contains a murine GFRalpha3 sequence and a heterologous GC sequence at its carboxy terminus) or with 10 ug/ml MOR02683. The vector-transfected cells shifted slightly above the unstained baseline because the HEK 293 EBNA cells endogenously expresses GFRalpha3 (FIGS. 2A and 2B). […] The lack of shift of the GFRalpha1-transfected cells and GFRalpha2-transfected cells as compared to vector-transfected cells indicated the specificity of MOR02683 for GFRalpha3 over its close family members (FIGS. 2A and 2B).

In experiment [4] the target is T4, rat GFRalpha2 (rat, UniProt O35977 22-444).
T4 construct: whole, on cells; Expressed on transiently transfected HEK 293 EBNA cells
T4 sequence: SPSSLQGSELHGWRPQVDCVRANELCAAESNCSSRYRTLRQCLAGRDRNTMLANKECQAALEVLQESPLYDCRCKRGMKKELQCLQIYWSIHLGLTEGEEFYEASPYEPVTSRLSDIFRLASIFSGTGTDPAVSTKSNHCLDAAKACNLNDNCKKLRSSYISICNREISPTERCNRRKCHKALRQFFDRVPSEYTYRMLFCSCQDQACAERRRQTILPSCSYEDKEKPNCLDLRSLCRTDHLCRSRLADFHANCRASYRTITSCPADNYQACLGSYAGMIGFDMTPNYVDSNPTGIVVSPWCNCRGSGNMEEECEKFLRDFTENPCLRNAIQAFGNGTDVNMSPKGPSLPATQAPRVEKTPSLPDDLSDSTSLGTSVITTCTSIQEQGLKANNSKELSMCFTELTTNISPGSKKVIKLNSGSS
The experiment is described as follows: FACS on transiently transfected HEK 293 EBNA cells. The procedure:
as §1

The target in experiment [5] is murine GFRalpha3-Ig (murine). Description: inhibition of Neublastin-GFRalpha3-Ret ternary complex formation: MOR02683 preincubated with 1 ug/ml murine GFRalpha3-Ig, 50 ng/ml rat Neublastin and rat Ret-AP conditioned media; capture on an anti-human Fc plate; AP chemiluminescence. The procedure:
MOR02683 was preincubated with 1 ug/ml murine GFRalpha3-Ig ([…] […] […] […] […] […] […] […] […] […] […] […]; SEQ ID NO:19) and 50 ng/ml rat Neublastin (113 amino acid form; […] […] TACGCLG; SEQ ID NO:20) in rat Ret-alkaline phosphatase ([…] […] […] […] […] […] […] […] […] […] […] […] […] […] […] […] […] […] […] […] […] […]; SEQ ID NO:21) conditioned media for an hour before being added to the coated plate for another hour. The alkaline phosphatase (AP) was visualized with a chemiluminescent substrate and the plate was read on a luminometer.

This note sets out measurements from patent publication US20090202562A1 (Biogen, published 2009).

B1: rat Neublastin (113 amino acid form) (ligand)
chain: AGTRSSRARATDARGCRLRSQLVPVSALGLGHSSDELIRFRFCSGSCRRARSPHDLSLASLLDAGALRSPPGSRPISQPCCRPTRYEAVSFMDVNSTWRTVDHLSATACGCLG
In general, Kd refers to the free concentration of one partner at which half of the binding sites on the other are occupied at equilibrium, for simple one-to-one binding. Take B1: the Kd in experiment [1] is about 200 nM.

B2: Fab fragment MOR02683 (Fab, V domains shown)
VH: QVQLVESGGGLVQPGGSLRLSCAASGFTFSNYTMHWVRQAPGKGLEWVSVISYDGSSTYYADSVKGRFTISRDNSKNTLYLQMNSLRAEDTAVYYCARIVRMDIWGQGTLVTVSS
VL: DIVLTQSPATLSLSPGERATLSCRASQSVNSHYLAWYQQKPGQAPRLLIYGASNRATGVPARFSGSGSGTDFTLTISSLEPEDFATYYCQQMDGFPFTFGQGTKVEIKR
notes: From the HuCAL GOLD Fab phage display library; also called anti-GFRalpha3 Fab fragment MOR02683
Usually EC50 stands for the concentration giving half of the maximal effect. A lower EC50 goes with higher potency in that assay. Consider B2, for which the binding result was “binds” in experiment [2], “no binding (tested: 10 ug/ml)” in experiment [3] and “no binding (tested: 10 ug/ml)” in experiment [4]. The same molecule showed an EC50 in experiment [5] of about 0.25 µg/mL.
